Reference: paper PMC6395372, “Myosin Va interacts with the exosomal protein spermine synthase” (Bioscience Reports, 2019)

Columns and labels:
[1] = biological target: T1, MyoVa-GTD, wild type (globular tail domain of myosin Va) (human, UniProt Q9Y4I1 1448-1855); test: MST; Monolith NT.115, LED power 40%, MST power 60%; 50 nM His-tagged SMS labelled with RED-tris-NTA, serial dilution of MyoVa-GTD; 20 mM HEPES, 150 mM NaCl, 5% glycerol, pH 7.4; triplicate; Hill fit; settings: both partners purified
T1 construct: Myosin Va, human, wild-type globular tail domain; limits are printed only for the EE two-hybrid construct (1448-1855 of NP_000250.3); In pET28a-TEV; Limits probably 1448-1855 as for the EE construct; also called TEV-treated MyoVa-GTD; source: E. coli BL21(DE3)∆SlyD pRARE2, purified (HiTrap Chelating, TEV cleavage, Superdex 200)
T1 sequence (Q9Y4I1 1448-1855): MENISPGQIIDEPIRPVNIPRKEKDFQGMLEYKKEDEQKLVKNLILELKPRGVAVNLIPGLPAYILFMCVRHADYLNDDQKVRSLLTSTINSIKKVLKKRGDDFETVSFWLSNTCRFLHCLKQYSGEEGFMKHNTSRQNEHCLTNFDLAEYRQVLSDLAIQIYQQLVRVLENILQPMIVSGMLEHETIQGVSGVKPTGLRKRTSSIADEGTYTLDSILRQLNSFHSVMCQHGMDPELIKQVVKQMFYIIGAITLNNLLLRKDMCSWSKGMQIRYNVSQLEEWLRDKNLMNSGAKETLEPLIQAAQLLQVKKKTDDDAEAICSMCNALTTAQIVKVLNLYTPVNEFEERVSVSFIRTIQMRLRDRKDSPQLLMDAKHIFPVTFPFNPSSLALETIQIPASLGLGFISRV

[2] = biological target: the molecule itself; test: SEC; Superdex 75 pg 16/600, 20 mM HEPES, 150 mM NaCl, 5% glycerol, pH 7.4; SMS dimers at Ve ~70 mL

Kd [1]: 3.5 ± 0.5 µM
B1: Spermine synthase (SMS), full length, His-tagged (enzyme, human, UniProt P52788-1 1-366, looked up)
chain: MAAARHSTLDFMLGAKADGETILKGLQSIFQEQGMAESVHTWQDHGYLATYTNKNGSFANLRIYPHGLVLLDLQSYDGDAQGKEEIDSILNKVEERMKELSQDSTGRVKRLPPIVRGGAIDRYWPTADGRLVEYDIDEVVYDEDSPYQNIKILHSKQFGNILILSGDVNLAESDLAYTRAIMGSGKEDYTGKDVLILGGGDGGILCEIVKLKPKMVTMVEIDQMVIDGCKKYMRKTCGDVLDNLKGDCYQVLIEDCIPVLKRYAKEGREFDYVINDLTAVPISTSPEEDSTWEFLRLILDLSMKVLKQDGKYFTQGNCVNLTEALSLYEEQLGRLYCPVEFSKEIVCVPSYLELWVFYTVWKKAKP
modifications: RED-tris-NTA dye label on the His-tag (in the MST assay)
notes: Spermine synthase, human, full-length ORF (NM_004595.4, 253-1353 pb) amplified from a human cDNA library; In pET28a-TEV; the fractions with SMS dimers were used in MST; also called 6xHis-SMS; His-tagged-labeled-SMS; source: E. coli BL21(DE3)∆SlyD pRARE2, purified (HiTrap Chelating, Superdex 75)
stoichiometry N [2]: 2
